One molecule from paper PMC5681435 (2017) can be followed below.

One test concerns the target T1, GSTCDK4 (human, UniProt P11802 1-303).
T1 chain: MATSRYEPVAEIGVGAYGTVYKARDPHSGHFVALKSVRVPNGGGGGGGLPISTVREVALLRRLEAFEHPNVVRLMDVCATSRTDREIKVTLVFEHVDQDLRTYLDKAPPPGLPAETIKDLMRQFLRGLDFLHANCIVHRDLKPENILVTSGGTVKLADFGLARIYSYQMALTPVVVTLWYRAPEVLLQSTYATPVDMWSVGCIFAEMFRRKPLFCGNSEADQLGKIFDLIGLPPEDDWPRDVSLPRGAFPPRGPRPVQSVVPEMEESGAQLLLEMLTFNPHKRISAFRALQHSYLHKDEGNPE
As to the kind of experiment: SPR.

The target in the next test is GSTCDK6 (human, UniProt Q00534 1-326). The test can be described thus: SPR. On the technique in general: Surface plasmon resonance follows binding to a sensor surface in real time, without labels.
Chain of GSTCDK6 (Q00534 whole entry): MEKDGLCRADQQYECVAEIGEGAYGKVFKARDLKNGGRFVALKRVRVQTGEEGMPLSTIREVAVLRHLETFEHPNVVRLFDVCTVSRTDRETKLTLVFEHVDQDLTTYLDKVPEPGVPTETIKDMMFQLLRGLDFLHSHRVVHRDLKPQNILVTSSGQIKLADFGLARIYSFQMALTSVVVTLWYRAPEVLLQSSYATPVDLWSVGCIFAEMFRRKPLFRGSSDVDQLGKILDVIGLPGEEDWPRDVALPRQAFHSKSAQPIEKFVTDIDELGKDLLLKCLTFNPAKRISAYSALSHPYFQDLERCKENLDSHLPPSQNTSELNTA

As usually defined, the Kd is the constant that tells how readily two partners part at equilibrium. A higher Kd goes with weaker binding.

B1: Cdc37 (analyte of the SPR titrations) (natural protein)
chain: MVDYSVWDHIEVSDDEDETHPNIDTASLFRWRHQARVERMEQFQKEKEELDRGCRECKRKVAECQRKLKELEVAEGGKAELERLQAEAQQLRKEERSWEQKLEEMRKKEKSMPWNVDTLSKDGFSKSMVNTKPEKTEEDSEEVREQKHKTFVEKYEKQIKHFGMLRRWDDSQKYLSDNVHLVCEETANYLVIWCIDLEVEEKCALMEQVAHQTIVMQFILELAKSLKVDPRACFRQFFTKIKTADRQYMEGFNDELEAFKERVRGRAKLRIEKAMKEYEEEERKKRLGPGGLDPVEVYESLPEELQKCFDVKDVQMLQDAISKMDPTDAKYHMQRCIDSGLWVPNSKASEAKEGEEAGPGDPLLEAVPKTGDEKDVSV
As to B1, the values for the Kd with GSTCDK4 and with GSTCDK6 were 0.347 µM and 7 µM, respectively.
